{"source": "paper doi:10.1101/2025.08.17.670746", "about": "“Post-transcriptional regulation of meiotic transcripts by the RNA binding protein CDM1 is associated with cytoplasmic condensate assemblies” (bioRxiv, 2025)", "proteins": {"B1": {"name": "CALLOSE … MICROSPORES1 (CDM1) fused to G3GFP, made in E. coli (His6-MBP-CDM1-GFP and its TEV-cleaved form CDM1-GFP) (natural protein, Arabidopsis thaliana, UniProt Q9C9F5 1-308, looked up)", "chain": "MENKIAPFSYSGSSAGNSSSGGVVSSSLYSDQLYKSTRNIMQQRQDMVNREALCYTRLHEASLEAEALRLENTELRSMNLRLKNELNSLIRSSIQNRFDHRSPLRMLSNLSIGGNDADEVENQNRTVNRDDVNDKSPTSVMENEDLNRSSLPKSISVRSNGYSKASQGGGGAAAQSGKPRGTVTKPGTCGQVSTTQKVYVRGGGKKEDQEEEIEVEVYNQGMTKTELCNKWQETGTCPYGDHCQFAHGIKELRPVIRHPRYKTEVCRMVLAGDNCPYGHRCHFRHSLSEQEKLVAAGFKPKSSLKLIT", "notes": "CDM1 (CALLOSE … MICROSPORE1, C3H15), Arabidopsis thaliana, At1G68200; Self-association test with two differently tagged copies: the bait copy kept His6-MBP (His6-MBP-CDM1-GFP); Both copies carry the C-terminal G3GFP, by which they were detected; also called C3H15; His-MBP-CDM1-G3GFP; source: E. coli BL21-Rosetta, purified (His Mag Sepharose Ni beads, dialysed); not shown: His6, N-terminal, kept; …"}}, "target": "the molecule itself", "test": "pull-down; equimolar His6-MBP-CDM1-GFP and TEV-cleaved CDM1-GFP mixed in 20 mM HEPES pH 7.4, 150 mM KCl, 1 mM DTT, room temperature, 2 h; precipitated with anti-His antibody and Protein G beads; blot with anti-GFP"}
{"protein": "B1", "values": [{"measurement": "binding result", "value": "binds"}]}
